Results published in US20210388043A1 (IMMUNEONCO BIOPHARMACEUTICALS SHANGHAI, published 2021).

Biological target: T1, HY03M (human)
T1 construct: Homodimer; also called SIRPαD1-Fc (N89A)
Experiment: ELISA on coated FcγR; HY03M is the reference against which HY03MM was decreased (FIG. 9A)
Method: The binding activities of proteins of the present invention to FcγRs were tested by ELISA as follows.
The plate was left in a refrigerator at 4° C. overnight. Immediately before the test, the plate was washed by 0.05% PBS-T and then blocked by 3% skim milk for 1 hour at room temperature. […] After incubated at room temperature for 1 hour, the liquids in the plate were discarded. […] The plate was incubated at room temperature for 1 hour and then washed by the washing solutions for 5 times. Thereafter, HRP substrates were added to the plate, and the plate was left for colorimetric reaction for 10 to 20 minutes in the dark. The colorimetric reaction was terminated later using 1 N H₂SO₄, and the OD450 value was obtained in a plate reader.

T1 sequence (chain, as listed by the source limits assumed): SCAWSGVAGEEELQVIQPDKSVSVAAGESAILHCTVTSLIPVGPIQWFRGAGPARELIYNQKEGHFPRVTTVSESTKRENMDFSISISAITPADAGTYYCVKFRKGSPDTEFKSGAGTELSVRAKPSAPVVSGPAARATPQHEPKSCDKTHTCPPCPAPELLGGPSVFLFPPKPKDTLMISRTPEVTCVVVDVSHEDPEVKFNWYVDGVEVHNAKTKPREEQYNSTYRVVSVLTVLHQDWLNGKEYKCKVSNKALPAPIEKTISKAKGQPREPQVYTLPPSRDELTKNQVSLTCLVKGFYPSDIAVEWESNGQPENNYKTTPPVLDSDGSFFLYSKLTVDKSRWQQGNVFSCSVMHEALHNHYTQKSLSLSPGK

| Binder | binding result |
| --- | --- |
| CD32b (FcγRIIb) (receptor, UniProt P31994 46-217, looked up, Bought recombinant protein coated on an ELISA plate) APPKAVLKLEPQWINVLQEDSVTLTCRGTHSPESDSIQWFHNGNLIPTHTQPSYRFKANNNDSGEYTCQTGQTSLSDPVHLTVLSEWLVLQTPHLEFQEGETIVLRCHSWKDKPLVKVTFFQNGKSKKFSRSDPNFSIPQANHSHSGDYHCTGNIGYTLYSSKPVTITVQAP | binds |
| CD64 (FcγRI) (receptor, UniProt P12314 16-288, looked up, Bought recombinant protein coated on an ELISA plate) QVDTTKAVITLQPPWVSVFQEETVTLHCEVLHLPGSSSTQWFLNGTATQTSTPSYRITSASVNDSGEYRCQRGLSGRSDPIQLEIHRGWLLLQVSSRVFTEGEPLALRCHAWKDKLVYNVLYYRNGKAFKFFHWNSNLTILKTNISHNGTYHCSGMGKHRYTSAGISVTVKELFPAPVLNASVTSPLLEGNLVTLSCETKLLLQRPGLQLYFSFYMGSKTLRGRNTSSEYQILTARREDSGLYWCEAATEDGNVLKRSPELELQVLGLQLPTP | binds |
